Molecular target: Factor X, P00742
Sequence (P00742 whole entry, looked up): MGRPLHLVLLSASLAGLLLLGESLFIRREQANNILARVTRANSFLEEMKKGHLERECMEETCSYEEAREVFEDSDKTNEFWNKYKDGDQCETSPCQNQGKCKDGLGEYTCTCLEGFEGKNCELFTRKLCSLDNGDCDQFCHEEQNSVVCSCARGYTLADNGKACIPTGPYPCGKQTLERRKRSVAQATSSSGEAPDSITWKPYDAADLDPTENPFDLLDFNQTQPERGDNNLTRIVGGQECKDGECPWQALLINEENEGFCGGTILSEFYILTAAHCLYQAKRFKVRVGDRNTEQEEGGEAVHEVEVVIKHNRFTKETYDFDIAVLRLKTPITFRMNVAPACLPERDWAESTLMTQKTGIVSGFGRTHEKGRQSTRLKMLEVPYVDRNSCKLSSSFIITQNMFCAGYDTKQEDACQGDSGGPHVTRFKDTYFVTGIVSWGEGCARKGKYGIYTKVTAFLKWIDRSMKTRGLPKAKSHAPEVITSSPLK

B1: rFVII-CTP (Factor VII-CTP, one CTP at the carboxy terminus) (protein)
chain: AVFVTQEEAHGVLHRRRRANAFLEELRPGSLERECKEEQCSFEEAREIFKDAERTKLFWISYSDGDQCASSPCQNGGSCKDQLQSYICFCLPAFEGRNCETHKDDQLICVNENGGCEQYCSDHTGTKRSCRCHEGYSLLADGVSCTPTVEYPCGKIPILEKRNASKPQGRIVGGKVCPKGECPWQVLLLVNGAQLCGGTLINTIWVVSAAHCFDKIKNWRNLIAVLGEHDLSEHDGDEQSRRVAQVIIPSTYVPGTTNHDIALLRLHQPVVLTDHVVPLCLPERTFSERTLAFVRFSLVSGWGQLLDRGATALELMVLNVPRLMTQDCLQQSRKVGDSPNITEYMFCAGYSDGSKDSCKGDSGGPHATHYRGTWYLTGIVSWGQGCATVGHFGVYTRVSQYIEWLQKLMRSEPRPGVLLRAPFPSSSSKAPPPSLPSPSRLPGPSDTPILPQ
With B1 the “FVII chromogenic activity (AssaySense Human FVII Chromogenic Activity Assay Kit)” value was “The addition of the CTP peptide at the C-terminal of the rFVII protein did not impair the FVII serine protease activity”.
